Measurements reported in the supplement of paper PMC10201428.
± gives the standard deviation of the averaged measurements.

What was measured:
[1] = test system: VchCAST RNA-guided transposition machinery (E. coli BL21(DE3) host, lacZ target); test: relative integration efficiency (T-RL orientation) vs wild-type transposon end (log2 (normalized fold change)); transposon end mutated: right end (5 bp flank + 75 bp right end); higher = more efficient transposition
How it was run: (§1)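 In E. coli BL21(DE3), a T7-driven effector plasmid was paired with a pUC57 mini-transposon donor containing 1549 left-end or 1849 right-end barcoded transposon variants. Cells grew on plates with 0.1 mM IPTG at 37°C for 18 h. Relative integration efficiency was derived from Illumina reads of genomic integration junctions against input plasmids, as a log-transformed output/input barcode fold change normalised to reference barcodes.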

[2] = test system: VchCAST RNA-guided transposition machinery (E. coli BL21(DE3) host, lacZ target); test: relative integration efficiency (T-LR orientation) vs wild-type transposon end (log2 (normalized fold change)); transposon end mutated: right end (5 bp flank + 75 bp right end); higher = more efficient transposition
How it was run: as §1

Sequence	relative integration efficiency (log2) [1]	relative integration efficiency (log2) [2]
ACATTTGTTGATACAACCATAAGTTGATATTTTCACCCATAAATTGATATTGCTCACAACCATAAAATGATAATTACTCTGATCATAGTCAGACCAACATTGCTACGACCCGTATTCGCACCGACAC	-0.631 ± 0.13	-0.0881 ± 0.35
ACATTTGTTGATACAACCATAAGTTGATATTTTCACCCATAAATTGATATTGCTCACAACCATAAAGTGATATTTACTCTGATCATAGTCAGACCAACATTGCTACGACCCGTATTCGCACCGACAC	-0.377 ± 0.053	-0.333 ± 0.49
ACATTTGTTGATACAACCATAAGTTGATATTTTCACCCATAAATTGATATTGCTCACAACCATAAGTTGATATTTTCTCTGATCATAGTCAGACCAACATTGCTACGACCCGTATTCGCACCGACAC	-0.281 ± 0.16	-0.109 ± 0.43
ACATTTGTTGATACAACCATAAGTTGATATTTTCACCCATAAATTGATATTGCTCACAACCATATATTGATATCTCCTCTGATCATAGTCAGACCAACATTGCTACGACCCGTATTCGCACCGACAC	-0.904 ± 0.14	0.0122 ± 0.21
ACATTTGTTGATACAACCATAAGTTGATATTTTCACCCATAAATTGATATTGCTCACACCCATAAATTGATAATTACTCTGATCATAGTCAGACCAACATTGCTACGACCCGTATTCGCACCGACAC	-0.658 ± 0.16	0.36 ± 0.054
ACATTTGTTGATACAACCATAAGTTGATATTTTCACCCATAAATTGATATTGCTCACACCCATAAATTGATATTGCCTCTGATCATAGTCAGACCAACATTGCTACGACCCGTATTCGCACCGACAC	-0.468 ± 0.17	0.258 ± 0.12
ACATTTGTTGATACAACCATAAGTTGATATTTTCACCCATAAATTGATATTGCTCAGTGGGTATTTAACTATAACGCTCTGATCATAGTCAGACCAACATTGCTACGACCCGTATTCGCACCGACAC	-1.19 ± 0.12	2.31 ± 0.065
ACATTTGTTGATACAACCATAATATGATAATTACACCCATAATTTGATAATTATCACACCCATAATTTGATATTGCCTCTGATCATAGTCAGACCAACATTGCTACGACCCGTATTCGCACCGACAC	-0.262 ± 0.035	-0.428 ± 0.015
ACATTTGTTGATACAACCATAATTACATAATTACACCCATAAATTGATAATTATCACACCCATAAATTGATATTGCCTCTGATCATAGTCAGACCAACATTGCTACGACCCGTATTCGCACCGACAC	-2.32 ± 0.15	-2.85 ± 0.16
ACATTTGTTGATACAACCATAATTTGATAATTACACCCATAAATTGATAATTATCACACCCATAAATTGATATTGCCTCTGATCATAGTCAGACCAACATTGCTACGACCCGTATTCGCACCGACAC	-0.314 ± 0.1	-0.168 ± 0.26
ACATTTGTTGATACAACCATAATTTGATAATTACACCCATAATATGATAATTATCACACCCATAATATGATATTGCCTCTGATCATAGTCAGACCAACATTGCTACGACCCGTATTCGCACCGACAC	-0.651 ± 0.15	-0.228 ± 0.16
ACATTTGTTGATACAACCATACAATGATAATTACACCCATACATTGATAATTATCACACCCATACATTGATATTGCCTCTGATCATAGTCAGACCAACATTGCTACGACCCGTATTCGCACCGACAC	-2.95 ± 0.34	-1.3 ± 0.016
ACATTTGTTGATACAACCATACCATGATAATTACACCCATAAATTGATAATTATCACACCCATAAATTGATATTGCCTCTGATCATAGTCAGACCAACATTGCTACGACCCGTATTCGCACCGACAC	-1.34 ± 0.079	-1.98 ± 0.24
ACATTTGTTGATACAACCATACCATGATAATTACACCCATACCTTGATAATTATCACACCCATACCTTGATATTGCCTCTGATCATAGTCAGACCAACATTGCTACGACCCGTATTCGCACCGACAC	-3.2 ± 0.16	-1.75 ± 0.22
ACATTTGTTGATACAACCATACCCGGATAATTACACCCATAAATTGATAATTATCACACCCATAAATTGATATTGCCTCTGATCATAGTCAGACCAACATTGCTACGACCCGTATTCGCACCGACAC	-3.77 ± 0.26	-4.39 ± 0.99
ACATTTGTTGATACAACCATACCCGTCGCCGGCACAAACGCCCGGTCGCCGGCGACACAAACGCCCGGTCGCGGTAAGAGGATCATAGTCAGACCAACATTGCTACGACCCGTATTCGCACCGACAC	-6.48 ± 0.07	-4.78 ± 0.59
ACATTTGTTGATACAACCATACCCTGATAATTACACCCATACCGTGATAATTATCACACCCATACCGTGATATTGCCTCTGATCATAGTCAGACCAACATTGCTACGACCCGTATTCGCACCGACAC	-4.24 ± 0.2	-2.37 ± 1
ACATTTGTTGATACAACCATATAATGATAATAACACCAATAAAATGATAATTATCACACCCAATTTAACTATAACGCTCTGATCATAGTCAGACCAACATTGCTACGACCCGTATTCGCACCGACAC	-1.09 ± 0.33	1.887 ± 0.0053

Sequence	relative integration efficiency (log2) [1]	relative integration efficiency (log2) [2]
ACATTTGTTGATACAACCATATAATGATAATAACACCCATAAAATGATAATTATCACACCCAATTTAACTATAACGCTCTGATCATAGTCAGACCAACATTGCTACGACCCGTATTCGCACCGACAC	-1.15 ± 0.33	2.16 ± 0.14
ACATTTGTTGATACAACCATATAATGATAATAACACCCCTAAAATGATAATTATCACACCCAATTTAACTATAACGCTCTGATCATAGTCAGACCAACATTGCTACGACCCGTATTCGCACCGACAC	-2.99 ± 0.37	0.598 ± 0.1
ACATTTGTTGATACAACCATATAATGATAATAACACCGATAAAATGATAATTATCACACCCAATTTAACTATAACGCTCTGATCATAGTCAGACCAACATTGCTACGACCCGTATTCGCACCGACAC	-1.46 ± 0.28	1.74 ± 0.093
ACATTTGTTGATACAACCATATAATGATAATTACACCCATATATTGATAATTATCACACCCATATATTGATATTGCCTCTGATCATAGTCAGACCAACATTGCTACGACCCGTATTCGCACCGACAC	0.0833 ± 0.11	0.24 ± 0.36
ACATTTGTTGATACAACCATATATTGATATCTCCAACCATAAAATGATAATTATCACAACCATAAAATGATAATTACTCTGATCATAGTCAGACCAACATTGCTACGACCCGTATTCGCACCGACAC	-0.172 ± 0.01	-0.314 ± 0.062
ACATTTGTTGATACAACCATATATTGATATCTCCAACCATAAAATGATAATTATCACAACCATAAAGTGATATTTACTCTGATCATAGTCAGACCAACATTGCTACGACCCGTATTCGCACCGACAC	-0.115 ± 0.074	-0.441 ± 0.36
ACATTTGTTGATACAACCATATATTGATATCTCCAACCATAAAATGATAATTATCACAACCATAAGTTGATATTTTCTCTGATCATAGTCAGACCAACATTGCTACGACCCGTATTCGCACCGACAC	-0.491 ± 0.098	-0.357 ± 0.16
ACATTTGTTGATACAACCATATATTGATATCTCCAACCATAAAATGATAATTATCACAACCATATATTGATATCTCCTCTGATCATAGTCAGACCAACATTGCTACGACCCGTATTCGCACCGACAC	-0.5854 ± 0.0047	-0.283 ± 0.24
ACATTTGTTGATACAACCATATATTGATATCTCCAACCATAAAATGATAATTATCACACCCATAAATTGATAATTACTCTGATCATAGTCAGACCAACATTGCTACGACCCGTATTCGCACCGACAC	-0.0947 ± 0.0052	-0.0737 ± 0.099
ACATTTGTTGATACAACCATATATTGATATCTCCAACCATAAAATGATAATTATCACACCCATAAATTGATATTGCCTCTGATCATAGTCAGACCAACATTGCTACGACCCGTATTCGCACCGACAC	-0.212 ± 0.018	-0.381 ± 0.023
ACATTTGTTGATACAACCATATATTGATATCTCCAACCATAAAATGATAATTATCAGTGGGTATTTAACTATAACGCTCTGATCATAGTCAGACCAACATTGCTACGACCCGTATTCGCACCGACAC	-1.15 ± 0.24	2.32 ± 0.29
ACATTTGTTGATACAACCATATATTGATATCTCCAACCATAAAGTGATATTTATCACAACCATAAAATGATAATTACTCTGATCATAGTCAGACCAACATTGCTACGACCCGTATTCGCACCGACAC	-0.716 ± 0.2	-0.762 ± 0.065
ACATTTGTTGATACAACCATATATTGATATCTCCAACCATAAAGTGATATTTATCACAACCATAAAGTGATATTTACTCTGATCATAGTCAGACCAACATTGCTACGACCCGTATTCGCACCGACAC	-0.409 ± 0.1	-0.451 ± 0.11
ACATTTGTTGATACAACCATATATTGATATCTCCAACCATAAAGTGATATTTATCACAACCATAAGTTGATATTTTCTCTGATCATAGTCAGACCAACATTGCTACGACCCGTATTCGCACCGACAC	0.261 ± 0.2	0.0054 ± 0.55
ACATTTGTTGATACAACCATATATTGATATCTCCAACCATAAAGTGATATTTATCACAACCATATATTGATATCTCCTCTGATCATAGTCAGACCAACATTGCTACGACCCGTATTCGCACCGACAC	-0.515 ± 0.17	-0.237 ± 0.36
ACATTTGTTGATACAACCATATATTGATATCTCCAACCATAAAGTGATATTTATCACACCCATAAATTGATAATTACTCTGATCATAGTCAGACCAACATTGCTACGACCCGTATTCGCACCGACAC	-0.578 ± 0.023	-0.426 ± 0.18
ACATTTGTTGATACAACCATATATTGATATCTCCAACCATAAAGTGATATTTATCACACCCATAAATTGATATTGCCTCTGATCATAGTCAGACCAACATTGCTACGACCCGTATTCGCACCGACAC	-0.42 ± 0.096	-0.302 ± 0.25
